B1: Fc-Loop TN8-19-7 construct with insertion at L139/T140 and asymmetric Gly4/Gly6 linkers (CH3 domain) (Fc fusion)
chain: MDKTHTCPPCPAPELLGGPSVFLFPPKPKDTLMISRTPEVTCVVVDVSHEDPEVKFNWYVDGVEVHNAKTKPREEQYNSTYRVVSVLTVLHQDWLNGKEYKCKVSNKALPAPIEKTISKAKGQPREPQVYTLPPSRDELGGGGLADHGQCIRWPWMCPPEGWEGGGGGGTKNQVSLTCLVKGFYPSDIAVEWESNGQPENNYKTTPPVLDSDGSFFLYSKLTVDKSRWQQGNVFSCSVMHEALHNHYTQKSLSLSPGK
B2: Fc-loop TN8-19-07 (clone #6951) (Fc fusion)
chain: MDKTHTCPPCPAPELLGGPSVFLFPPKPKDTLMISRTPEVTCVVVDVSHEDPEVKFNWYVDGVEVHNAKTKPREEQYNSTYRVVSVLTVLHQDWLNGKEYKCKVSNKALPAPIEKTISKAKGQPREPQVYTLPPSRDELGGLADHGQCIRWPWMCPPEGWEGGTKNQVSLTCLVKGFYPSDIAVEWESNGQPENNYKTTPPVLDSDGSFFLYSKLTVDKSRWQQGNVFSCSVMHEALHNHYTQKSLSLSPGK
B3: Fc-Loop TN8-19-7 construct with insertion at H49/E50 (CH2 domain) (Fc fusion, not shown: small tags and cut ends)
chain: MDKTHTCPPCPAPELLGGPSVFLFPPKPKDTLMISRTPEVTCVVVDVSHLADHGQCIRWPWMCPPEGWEEDPEVKFNWYVDGVEVHNAKTKPREEQYNSTYRVVSVLTVLHQDWLNGKEYKCKVSNKALPAPIEKTISKAKGQPREPQVYTLPPSRDELTKNQVSLTCLVKGFYPSDIAVEWESNGQPENNYKTTPPVLDSDGSFFLYSKLTVDKSRWQQGNVFSCSVMHEALHNHYTQKSLSLSPGK
B4: Fc-Loop TN8-19-7 construct with insertion at Y77/N78 (CH2 domain) (Fc fusion, not shown: small tags and cut ends)
chain: MDKTHTCPPCPAPELLGGPSVFLFPPKPKDTLMISRTPEVTCVVVDVSHEDPEVKFNWYVDGVEVHNAKTKPREEQYLADHGQCIRWPWMCPPEGWENSTYRVVSVLTVLHQDWLNGKEYKCKVSNKALPAPIEKTISKAKGQPREPQVYTLPPSRDELTKNQVSLTCLVKGFYPSDIAVEWESNGQPENNYKTTPPVLDSDGSFFLYSKLTVDKSRWQQGNVFSCSVMHEALHNHYTQKSLSLSPGK

Experiments:
myostatin = target: T1, myostatin (UniProt O14793 267-375, limits assumed); test: cell-based or functional assay
T1 sequence (looked up): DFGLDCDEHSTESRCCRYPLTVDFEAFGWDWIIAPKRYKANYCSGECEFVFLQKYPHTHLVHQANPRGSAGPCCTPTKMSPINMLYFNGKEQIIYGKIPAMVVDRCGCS

FcRn = test: Biacore FcRn binding
Sequence of FcRn (chain, as listed by the source, chain 1 of 2): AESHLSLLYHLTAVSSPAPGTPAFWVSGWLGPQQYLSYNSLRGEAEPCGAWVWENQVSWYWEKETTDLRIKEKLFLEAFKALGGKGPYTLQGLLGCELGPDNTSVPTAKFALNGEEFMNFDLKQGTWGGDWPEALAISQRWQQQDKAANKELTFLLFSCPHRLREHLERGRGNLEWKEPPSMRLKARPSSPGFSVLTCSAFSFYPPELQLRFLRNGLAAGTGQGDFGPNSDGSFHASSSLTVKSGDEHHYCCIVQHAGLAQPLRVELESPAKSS
Sequence of FcRn (chain, as listed by the source, chain 2 of 2): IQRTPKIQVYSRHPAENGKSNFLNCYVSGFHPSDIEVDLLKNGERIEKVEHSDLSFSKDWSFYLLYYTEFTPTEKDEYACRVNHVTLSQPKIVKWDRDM

| Binder | IC50(nM), in vitro cell based myostatin inhibition assay (luciferase reporter, C2C12 pMARE-luc) (myostatin) | EC50 (FcRn) |
| --- | --- | --- |
| B1 | 0.873 nM |  |
| B2 | 0.834 nM |  |
| B3 |  | ~680 nM |
| B4 |  | ~680 nM |
